# Test results from paper PMC7948952, “Structural basis for multifunctional roles of human Ints3 C-terminal domain” (The Journal of Biological Chemistry, 2020).
# Target: Ints3-555-976 R788E/K789E (human, UniProt Q68E01-2 555-976, R788E;K789E)
# Experiment: EMSA; not reduced vs WT (WT itself weak); up to 200 uM; 20 mM Hepes pH 7.4, 100 mM NaCl, 1 mM MgCl2, 1 mg/ml BSA, 2 mM DTT, 5% glycerol; on ice 30 min; 7.5 nM probe; native 5% PAGE in 1X TBE
# Conditions: protein: recombinant; chain copies: 2; label: 5' 32P; single strand
# Ints3-555-976 R788E/K789E, sequence (Q68E01 556-977 R789E/K790E): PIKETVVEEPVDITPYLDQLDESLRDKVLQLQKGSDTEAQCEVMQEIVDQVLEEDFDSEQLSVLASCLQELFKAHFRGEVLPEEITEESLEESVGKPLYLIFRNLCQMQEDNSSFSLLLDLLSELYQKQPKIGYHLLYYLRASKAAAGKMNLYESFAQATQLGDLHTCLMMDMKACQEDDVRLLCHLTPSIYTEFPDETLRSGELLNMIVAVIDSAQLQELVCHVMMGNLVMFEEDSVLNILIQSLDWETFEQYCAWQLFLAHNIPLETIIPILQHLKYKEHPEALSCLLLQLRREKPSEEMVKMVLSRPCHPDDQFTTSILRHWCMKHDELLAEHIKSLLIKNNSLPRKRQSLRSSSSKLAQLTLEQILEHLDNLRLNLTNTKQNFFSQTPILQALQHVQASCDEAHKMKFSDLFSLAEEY
binder,measurement,value
TTTTTTTTTTTTTTTTTTTTTTTTTTTTTT (ssDNA) [dT30],binding result,binds
